Test results taken from patent US7176008.

Columns and labels:
[1] = target: human carboxypeptidase N (human) (UniProt P15169)
[2] = target: thrombin; assay: cell-based or functional assay

human carboxypeptidase N (human), sequence (P15169 21-458 limits assumed, chain 1 of 2): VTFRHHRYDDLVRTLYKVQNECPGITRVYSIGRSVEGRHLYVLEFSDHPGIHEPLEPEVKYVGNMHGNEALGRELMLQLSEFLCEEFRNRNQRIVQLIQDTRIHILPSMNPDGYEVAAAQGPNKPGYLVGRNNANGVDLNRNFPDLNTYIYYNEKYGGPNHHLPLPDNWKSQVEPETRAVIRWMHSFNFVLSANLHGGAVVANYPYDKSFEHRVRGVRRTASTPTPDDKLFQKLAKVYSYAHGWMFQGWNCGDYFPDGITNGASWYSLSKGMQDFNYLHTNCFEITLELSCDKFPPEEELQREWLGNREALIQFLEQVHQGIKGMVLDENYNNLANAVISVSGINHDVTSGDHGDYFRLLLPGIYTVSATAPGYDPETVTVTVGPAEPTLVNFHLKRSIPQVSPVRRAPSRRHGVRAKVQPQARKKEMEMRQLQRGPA
human carboxypeptidase N (human), sequence (P22792 22-545 limits assumed, chain 2 of 2, further chain): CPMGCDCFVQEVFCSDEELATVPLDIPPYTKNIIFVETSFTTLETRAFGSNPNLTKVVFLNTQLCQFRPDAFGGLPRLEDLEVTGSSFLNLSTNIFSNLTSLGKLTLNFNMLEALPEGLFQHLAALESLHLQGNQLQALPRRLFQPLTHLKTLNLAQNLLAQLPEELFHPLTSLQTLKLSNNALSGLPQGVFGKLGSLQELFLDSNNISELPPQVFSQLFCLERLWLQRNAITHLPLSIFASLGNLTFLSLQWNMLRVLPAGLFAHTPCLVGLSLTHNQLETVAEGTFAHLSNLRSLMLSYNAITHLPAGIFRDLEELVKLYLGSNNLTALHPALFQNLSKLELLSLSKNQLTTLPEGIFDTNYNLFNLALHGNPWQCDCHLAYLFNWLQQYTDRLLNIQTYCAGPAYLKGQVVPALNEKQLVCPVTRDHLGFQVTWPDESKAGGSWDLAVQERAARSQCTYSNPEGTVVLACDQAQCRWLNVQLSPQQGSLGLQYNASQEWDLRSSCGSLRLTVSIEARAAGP

Ki [1] [nM] | increase of TAFIa generation in diluted human plasma [2] [fold] | Substance
970 |  | protamine sulfate (grade X from salmon, Mr 5,000) (peptide)
 | 30 to 35 | rabbit lung thrombomodulin
